Experimental findings from US20170130226, “APTAMERS AGAINST EGFR AND THERAPEUTIC USES THEREOF” (ALTERMUNE LIMITED, published 2017) are described below.

The target in the data set is EGFR (UniProt P00533 P00533:25-645). As to the kind of experiment: SPR; PBS, 5 mM MgCl2, 20 C. Conditions: tags: R&D Systems; amine-coupled to sensor chip; label: 5' biotin. How it is done: Aptamer binding to EGFR recombinant protein was assessed by surface plasmon resonance (SPR). SPR experiments were performed on a 404pi system (BiOptix, Boulder, Colo.), at a constant temperature of 20° C., 20 μL min⁻¹ flow rate, using running buffer (degassed PBS, 5 mM MgCl₂, 0.05% Tween) for all coupling and capture steps. 0.1 M N-hydroxysuccinimide (NHS) in MOPS, 0.4 M 1-ethyl-3-(3-dimethylaminopropyl) carbodiimide hydrochloride (EDC), 1 M ethanolamine hydrochloride (pH 8.5) and 10 mM sodium acetate pH 4.5, were from Sigma (St. Louis, Mo.). EGFR was obtained from R&D Systems (Minneapolis, Minn.). Three 96 well plates of oligonucleotides were synthesized by solid phase phosphoramidite chemistry by Boston Open Labs (Cambridge, Mass.) with a 5′ biotin.
The surface in all four channels of a CDM150 sensor chip (BiOptix) was activated by injecting 140 μL of a 1:1 mixture (v/v) of EDC and NHS. Then 350 μL of 285 nM EGFR in 10 mM sodium acetate pH 4.5 was injected in all 4 channels and covalently bound to a density of ˜8000 Response Units (RU) over 1050 sec. Finally, the surface was blocked by an injection of 200 μL 1 M ethanolamine hydrochloride.
Background: In SPR one partner is held on a chip, and binding of the other changes the refractive index at the surface.
As for GGACGGAUUUAAUCGCCGUAGAAAAGCAUGUCAAAGCCGGAACCGUCC (ssRNA, 2'-F all C and U; 2'-OMe A7) [ALT102064.01], the binding result is recorded as “binds”.
Then GGACGGAUUUAAUCGCCGUAGAAAAGCAUGUCAAAGCCGGAACCGUCC (ssRNA, 2'-F all C and U and A7) [ALT102111.01], with “binds”.
Turning to GGACGGAUUUAAUCGCCGUAGAAAAGCAUGUCAAAGCCGGAACCGUCC (ssRNA, 2'-F all C and U; 2'-OMe G26) [ALT102083.01], the binding result is “binds”.
With GGACGGAUUUAAUCGCCGUAGAAAAGCAUGUCAAAGCCGGAACCGUCC (ssRNA, 2'-F all C and U; 2'-OMe A33) [ALT102090.01] the entry was “binds”; with GGACGGAUUUAAUCGCCGUAGAAAAGCAUGUCAAAGCCGGAACCGUCC (ssRNA, 2'-F all C and U; 2'-OMe G15) [ALT102072.01], “binds”; with GGACGGAUUUAAUCGCCGUAGAAAAGCAUGUCAAAGCCGGAACCGUCC (ssRNA, 2'-F all C and U; 2'-OMe A24) [ALT102081.01], “binds”.
Then GGACGGAUUUAAUCGCCGUAGAAAAGCAUGUCAAAGCCGGAACCGUCC (ssRNA, 2'-F all C and U and A24) [ALT102120.01], with “binds”; and GGACGGAUUUAAUCGCCGUAGAAAAGCAUGUCAAAGCCGGAACCGUCC (ssRNA, 2'-F all C and U; 2'-OMe A20) [ALT102077.01], with “binds”.
Then GGACGGAUUUAAUCGCCGUAGAAAAGCAUGUCAAAGCCGGAACCGUCC (ssRNA, 2'-F all C and U; 2'-OMe G21) [ALT102078.01], with “binds”; and GGACGGAUUUAAUCGCCGUAGAAAAGCAUGUCAAAGCCGGAACCGUCC (ssRNA, 2'-F all C and U except 2'-OMe C37) [ALT102094.01], with “binds”; and GGACGGAUUUAAUCGCCGUAGAAAAGCAUGUCAAAGCCGGAACCGUCC (ssRNA, 2'-F all C and U and G26) [ALT102122.01], with “binds”.
Turning to GGACGGAUUUAAUCGCCGUAGAAAAGCAUGUCAAAGCCGGAACCGUCC (ssRNA, 2'-F all C and U and A23) [ALT102119.01], the binding result was “binds”.
Then GGACGGAUUUAAUCGCCGUAGAAAAGCAUGUCAAAGCCGGAACCGUCC (ssRNA, 2'-F all C and U and A25) [ALT102121.01], with “binds”.
As for GGACGGAUUUAAUCGCCGUAGAAAAGCAUGUCAAAGCCGGAACCGUCC (ssRNA, 2'-F all C and U; 2'-OMe G1) [ALT102058.01], the binding result is given as “binds”.
Then GGACGGAUUUAAUCGCCGUAGAAAAGCAUGUCAAAGCCGGAACCGUCC (ssRNA, 2'-F all C and U; 2'-OMe A41) [ALT102098.01], with “binds”.
Then GGACGGAUUUAAUCGCCGUAGAAAAGCAUGUCAAAGCCGGAACCGUCC (ssRNA, 2'-F all C and U and A3) [ALT102108.01], with “binds”; and GGACGGAUUUAAUCGCCGUAGAAAAGCAUGUCAAAGCCGGAACCGUCC (ssRNA, 2'-F all C and U; 2'-OMe G40) [ALT102097.01], with “binds”; and GGACGGAUUUAAUCGCCGUAGAAAAGCAUGUCAAAGCCGGAACCGUCC (ssRNA, 2'-F all C and U and A11) [ALT102112.01], with “binds”.
Then GGACGGAUUUAAUCGCCGUAGAAAAGCAUGUCAAAGCCGGAACCGUCC (ssRNA, 2'-F all C and U; 2'-OMe G2) [ALT102059.01], with “binds”; and GGACGGAUUUAAUCGCCGUAGAAAAGCAUGUCAAAGCCGGAACCGUCC (ssRNA, 2'-F all C and U; 2'-OMe G45) [ALT102102.01], with “binds”; and GGACGGAUUUAAUCGCCGUAGAAAAGCAUGUCAAAGCCGGAACCGUCC (ssRNA, 2'-F all C and U except 2'-OMe U9) [ALT102066.01], with “binds”.
For GGACGGAUUUAAUCGCCGUAGAAAAGCAUGUCAAAGCCGGAACCGUCC (ssRNA, 2'-F all C and U; 2'-OMe G18) [ALT102075.01], the binding result was “binds”.
Regarding GGACGGAUUUAAUCGCCGUAGAAAAGCAUGUCAAAGCCGGAACCGUCC (ssRNA, 2'-F all C and U; 2'-OMe A3) [ALT102060.01], the binding result is given as “binds”.
With GGACGGAUUUAAUCGCCGUAGAAAAGCAUGUCAAAGCCGGAACCGUCC (ssRNA, 2'-F all C and U except 2'-OMe C16) [ALT102073.01] the entry was “binds”; with GGACGGAUUUAAUCGCCGUAGAAAAGCAUGUCAAAGCCGGAACCGUCC (ssRNA, 2'-F all C and U and G21) [ALT102117.01], “binds”; with GGACGGAUUUAAUCGCCGUAGAAAAGCAUGUCAAAGCCGGAACCGUCC (ssRNA, 2'-F all C and U and A28) [ALT102123.01], “binds”.
With GGACGGAUUUAAUCGCCGUAGAAAAGCAUGUCAAAGCCGGAACCGUCC (ssRNA, 2'-F all C and U and G5) [ALT102109.01] the entry was “binds”; with GGACGGAUUUAAUCGCCGUAGAAAAGCAUGUCAAAGCCGGAACCGUCC (ssRNA, 2'-F all C and U; 2'-OMe A23) [ALT102080.01], “binds”.
As for GGACGGAUUUAAUCGCCGUAGAAAAGCAUGUCAAAGCCGGAACCGUCC (ssRNA, 2'-F all C and U except 2'-OMe U46) [ALT102103.01], the binding result was “binds”.
Then GGACGGAUUUAAUCGCCGUAGAAAAGCAUGUCAAAGCCGGAACCGUCC (ssRNA, 2'-F all C and U; 2'-OMe A28) [ALT102085.01], with “binds”; and GGACGGAUUUAAUCGCCGUAGAAAAGCAUGUCAAAGCCGGAACCGUCC (ssRNA, 2'-F all C and U; 2'-OMe G39) [ALT102096.01], with “binds”.
With GGACGGAUUUAAUCGCCGUAGAAAAGCAUGUCAAAGCCGGAACCGUCC (ssRNA, 2'-F all C and U except 2'-OMe U8) [ALT102065.01] the entry was “binds”.
As for GGACGGAUUUAAUCGCCGUAGAAAAGCAUGUCAAAGCCGGAACCGUCC (ssRNA, 2'-F all C and U and A22) [ALT102118.01], the binding result is listed as “binds”.
With GGACGGAUUUAAUCGCCGUAGAAAAGCAUGUCAAAGCCGGAACCGUCC (ssRNA, 2'-F all C and U; 2'-OMe G36) [ALT102093.01] the entry was “binds”; with GGACGGAUUUAAUCGCCGUAGAAAAGCAUGUCAAAGCCGGAACCGUCC (ssRNA, 2'-F all C and U; 2'-OMe G6) [ALT102063.01], “binds”.
For GGACGGAUUUAAUCGCCGUAGAAAAGCAUGUCAAAGCCGGAACCGUCC (ssRNA, 2'-F all C and U and G2) [ALT102107.01], the binding result was “binds”.
Take GGACGGAUUUAAUCGCCGUAGAAAAGCAUGUCAAAGCCGGAACCGUCC (ssRNA, 2'-F all C and U and A33) [ALT102125.01]: the binding result is recorded as “binds”.
With GGACGGAUUUAAUCGCCGUAGAAAAGCAUGUCAAAGCCGGAACCGUCC (ssRNA, 2'-F all C and U and A20) [ALT102116.01] the entry was “binds”; with GGACGGAUUUAAUCGCCGUAGAAAAGCAUGUCAAAGCCGGAACCGUCC (ssRNA, 2'-F all C and U except 2'-OMe C38) [ALT102095.01], “binds”.
For the molecule GGACGGAUUUAAUCGCCGUAGAAAAGCAUGUCAAAGCCGGAACCGUCC (ssRNA, 2'-F all C and U; 2'-OMe G5) [ALT102062.01], the binding result is “binds”.
Then GGACGGAUUUAAUCGCCGUAGAAAAGCAUGUCAAAGCCGGAACCGUCC (ssRNA, 2'-F all C and U except 2'-OMe C27) [ALT102084.01], with “binds”.
With GGACGGAUUUAAUCGCCGUAGAAAAGCAUGUCAAAGCCGGAACCGUCC (ssRNA, 2'-F all C and U except 2'-OMe C48) [ALT102105.01] the entry was “binds”.
For GGACGGAUUUAAUCGCCGUAGAAAAGCAUGUCAAAGCCGGAACCGUCC (ssRNA, 2'-F all C and U and G6) [ALT102110.01], the binding result is “binds”.
With GGACGGAUUUAAUCGCCGUAGAAAAGCAUGUCAAAGCCGGAACCGUCC (ssRNA, 2'-F all C and U and G15) [ALT102114.01] the entry was “binds”.
With GGACGGAUUUAAUCGCCGUAGAAAAGCAUGUCAAAGCCGGAACCGUCC (ssRNA, 2'-F all C and U except 2'-OMe C47) [ALT102104.01] the entry was “binds”.
Then GGACGGAUUUAAUCGCCGUAGAAAAGCAUGUCAAAGCCGGAACCGUCC (ssRNA, 2'-F all C and U except 2'-OMe U19) [ALT102076.01], with “binds”; and GGACGGAUUUAAUCGCCGUAGAAAAGCAUGUCAAAGCCGGAACCGUCC (ssRNA, 2'-F all C and U except 2'-OMe C4) [ALT102061.01], with “binds”.
As to GGACGGAUUUAAUCGCCGUAGAAAAGCAUGUCAAAGCCGGAACCGUCC (ssRNA, 2'-F all C and U; 2'-OMe G30) [ALT102087.01], the binding result was “binds”.
